From PMC4186791, “The Intrinsically Disordered Regions of the Drosophila melanogaster Hox Protein Ultrabithorax Select Interacting Proteins Based on Partner Topology” (PLoS ONE, 2014)

Tests used:
[1] = target: T1, UbxIb N103 Pro4 (Drosophila melanogaster, UniProt P83949 1-389, amino acids 2–102 removed (N103) | A226P | Q233P); experiment: two-hybrid; LexA-Ubx variant (pLexA) and B42-partner (pB42) co-transformed into S. cerevisiae EGY48 carrying p8op-LacZ; blue/white colonies on X-gal and liquid β-galactosidase (ONPG) assay after galactose induction at 30°C, reported in Miller units; conditions: partners not purified
T1 construct: Ultrabithorax (Ubx), Drosophila melanogaster, isoform Ib, from which amino acids 2–102 (Region 1) are removed, with the Pro4 mutations; Form is the full-length isoform Ib less the stated deletion; also called UbxIb N103 Pro4 (0, D2,0, D4, S5); source: yeast two-hybrid fusion (pLexA, S. cerevisiae EGY48)
T1 sequence (P83949 other isoform, or with tags, fused parts or gaps with the stated changes): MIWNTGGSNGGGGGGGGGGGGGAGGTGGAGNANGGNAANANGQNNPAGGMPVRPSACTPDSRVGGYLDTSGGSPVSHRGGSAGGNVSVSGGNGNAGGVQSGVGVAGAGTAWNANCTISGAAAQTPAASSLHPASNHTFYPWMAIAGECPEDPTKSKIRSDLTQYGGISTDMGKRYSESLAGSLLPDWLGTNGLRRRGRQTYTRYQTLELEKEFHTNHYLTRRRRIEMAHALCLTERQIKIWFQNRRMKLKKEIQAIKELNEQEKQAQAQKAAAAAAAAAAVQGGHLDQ

[2] = target: T2, UbxIb Δ103–216 (Drosophila melanogaster, UniProt P83949 1-389, Δ103-216); experiment: as above; conditions: partners not purified
T2 construct: source: yeast two-hybrid fusion (pLexA, S. cerevisiae EGY48)
T2 sequence (P83949 other isoform, or with tags, fused parts or gaps Δ103-216 | Δ103-216 | mutant): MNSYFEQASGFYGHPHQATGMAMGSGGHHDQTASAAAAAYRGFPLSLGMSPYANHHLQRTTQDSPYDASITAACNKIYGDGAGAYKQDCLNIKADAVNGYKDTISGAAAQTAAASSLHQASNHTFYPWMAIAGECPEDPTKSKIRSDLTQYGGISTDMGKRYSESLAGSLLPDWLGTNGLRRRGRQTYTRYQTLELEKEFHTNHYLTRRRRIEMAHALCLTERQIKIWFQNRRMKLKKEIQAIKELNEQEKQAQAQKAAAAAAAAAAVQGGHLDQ

| percent of reporter signal lost relative to UbxIb Pro4 [1] [%] | percent of reporter signal lost relative to UbxIb Pro4 [2] [%] | Binder |
| --- | --- | --- |
| ≥ 59 | ≥ 59 | Dishevelled (natural protein, Drosophila melanogaster, UniProt P51140 1-623, looked up, Dishevelled (Dsh), Drosophila melanogaster; also called Dsh; source: yeast two-hybrid fusion (pB42, S. cerevisiae EGY48)) MDADRGGGQETKVIYHIDDETTPYLVKIPIPSAQVTLRDFKLVLNKQNNNYKYFFKSMDADFGVVKEEIADDSTILPCFNGRVVSWLVSADGTNQSDNCSELPTSECELGMGLTNRKLQQQQQQHQQQQQQQQQQHQQQQQQQQQQVQPVQLAQQQQQQVLHHQKMMGNPLLQPPPLTYQSASVLSSDLDSTSLFGTESELTLDRDMTDYSSVQRLQVRKKPQRRKKRAPSMSRTSSYSSITDSTMSLNIITVSINMEAVNFLGISIVGQSNRGGDGGIYVGSIMKGGAVALDGRIEPGDMILQVNDVNFENMTNDEAVRVLREVVQKPGPIKLVVAKCWDPNPKGYFTIPRTEPVRPIDPGAWVAHTQALTSHDSIIADIAEPIKERLDQNNLEEIVKAMTKPDSGLEIRDRMWLKITIPNAFIGADAVNWVLENVEDVQDRREARRIVSAMLRSNYIKHTVNKLTFSEQCYYVVNEERNPNLLGRGHLHPHQLPHGHGGHALSHADTESITSDIGPLPNPPIYMPYSATYNPSHGYQPIQYGIAERHISSGSSSSDVLTSKDISASQSDITSVIHQANQLTIAAHGSNKSSGSSNRGGGGGGGGGGNNTNDQDVSVFNYVL |
| ≥ 59 | ≥ 59 | 14-3-3ε (natural protein, Drosophila melanogaster, UniProt P92177 1-262, looked up, 14-3-3ε, Drosophila melanogaster; source: yeast two-hybrid fusion (pB42, S. cerevisiae EGY48)) MTERENNVYKAKLAEQAERYDEMVEAMKKVASMDVELTVEERNLLSVAYKNVIGARRASWRIITSIEQKEENKGAEEKLEMIKTYRGQVEKELRDICSDILNVLEKHLIPCATSGESKVFYYKMKGDYHRYLAEFATGSDRKDAAENSLIAYKAASDIAMNDLPPTHPIRLGLALNFSVFYYEILNSPDRACRLAKAAFDDAIAELDTLSEESYKDSTLIMQLLRDNLTLWTSDMQAEEVDPNAGDGEPKEQIQDVEDQDVS |
| ≥ 59 | ≥ 59 | Ribosomal protein L22 (natural protein, Ribosomal protein L22 (RpL22), Drosophila melanogaster; also called RpL22; source: yeast two-hybrid fusion (pB42, S. cerevisiae EGY48)) not shown |
